Test: soluble on expression in E. coli; label from the status in PepcDB or PDB records
For “MGSDKIHHHHHHMECVFGIDVSKENANVAVLVDNVVIKQFKIGLDRLGFSLLSDELNSFNAPLIIYEATAMYSRRLRAFLQRDGWKYTELNPLAAKKVMEEFRHTKTDALDAVGLARAMIKNHFRPTYQESPVYTELHDLERTYQQFNKDIVTNKNRLHRALQLTFPEIEHFMSSTDGVLYWHIVQRFPHPAIVLSHEENELTEIILTETSKKIGLKRAMKLANRLLALAQNSAPAKEPQSHAVRAVIALAKEVERINQLKAQIIVEMTTLGENLSEVPLLVSIPGIGIKTALCLIAELGDVRRFHSANAINAYIGIDLIRYESGQYEAKMHIRKRGNPYVRKILYRAILNIISVSQYQPTLISANYKRKKQSAQSHGTKKIAIAAMSQFNRLMHHLILNNELYDSTTFMPE”, the “soluble on expression in E. coli” value was “not soluble”. With “MSLFFGFTSCLDICPSTLTILGQAEKHRENLPETQRPQVLFVSINPDRDSPLRLSGYARAFHKNILTTTADTPALQRFATALGLRFRKVPGKSYAENPLDDTMDHPTAIVVLDPQGHHVGMIHPPFNAEEIPTDLQKLTKEITEGHHHHHH” the “soluble on expression in E. coli” value was “not soluble”. For “MATAAASVVSSETGDLRAYMAANPAAVIEEVAKQWNVSPHAVIAALPDGMARLGPGDGFVAAMNDIATWGEVTLIVHTEDAIFEFTGEVPRGEISRGYFNLMQPKGLHGHLRHDRCGALAFVERPFMGKASAFVAFLNRDGGIMFKVFVGRDANRELRADQLARFHALAKQFSEEHSALEHHHHHH”, the “soluble on expression in E. coli” value was “not soluble”. With “TKDFSWNSDFIFSHAKNEVTDLRGRTRMMELVSGNGFAREGYPVRGLFSIPFAGLDEKGIPMFDINGNITSTDINFQEREKLDYLKYEGPTDPTITGSFGNVFAYKGFKLNVFMTYSFGNVVRLNPYFNYKYSDLSAMPREFKNRWTLSGDEAKTNIPAILSNPQYEANRTLYKAYNAYNYSTERIAKGDFIRMKEISLSYEFPKSWISAAKISNLSLKLQATNLFLIYADKKLNGQDPEFFNTGGVASPVPRQFTLTLRLGL” the “soluble on expression in E. coli” value was “not soluble”. With “MGHHHHHHSHMRPRRPHQIADLFRPKDQIAYSDTSPFLILSEASLADLNSRLEKKVKATNFRPNIVISGCDVYAEDSWDELLIGDVELKRVMACSRCILTTVDPDTGVMSRKEPLETLKSYRQCDPSERKLYGKSPLFGQYFVLENPGTIKVGDPVYLLGQ” the “soluble on expression in E. coli” value was “not soluble”. In the case of “MADEEKVTTEEQALADEWAAALAEAGDASQDDIDALMAQGGATPVAEPSTPRAPMEEFGASPKAPTISGLEGPNLDVILDIPVTISMEVGHTDISIRNLLQLNQGSVIELDRLAGEPLDVLVNGTLIAHGEVVVVNEKFGIRLTDVISPSERIKKLR”, the “soluble on expression in E. coli” value was “not soluble”. With “MGEKRKTRQAEVNIGMVGHVDHGKTTLTKALTGVWTDTHSEELRRGITIKIGFADAEIRRCSNCGRYSTSPICPYCGHETEFIRRVSFIDSPGHEALMTTMLAGASLMDGAILVIAANEPCPRPQTREHLMALQIIGQKNIIIAQNKIELVDKEKALENYRQIKEFIKGTVAENAPIIPISALHGANIDVLVKAIEEFIPTPKRDSNKPPKMLVLRSFDVNKPGTPPEKLVGGVLDGSIVQGKLKVGDEIEIRPGVPYEEHGRIKYEPITTEIVSLQAGGQFVEEAYPGGLVGIGTKLDPYLTKGDLMAGNVVGKPGKLPPVWTDLRLEVHLLERVVGTEQELNVEPIKRKEVLLLNVGTARTMGLVTALGKDEIELKLQIPVCAEPGERVAISRQIGSRWRLIGYGIIKELEHHHHHH” the “soluble on expression in E. coli” value was “soluble”. For “VYNYMVDDTRSQLSIFMDEIAAQLEVDHTGHLSLAAQLSDPRFSRPYSGLYWSASTDSSLERSRSLWDKRIEYKGLDKDAYGARDEKLITLEKALYLPDYDGPIHIIVGIDEEPIKSTLQ”, the “soluble on expression in E. coli” value was “not soluble”. For “MGNVMLSKRKSGSMADDTGEHPVCFNCTLRVDQTIHVKCFECPLRICILCFQCGAESPPHRRGHNYELVKPTSNPEAMSWTHEDEFELLKAAHKFKMGNWGEIAESIGRGRKDGHNCKDYFEKHFVRGWIGQFSIKSSSWDRIKYGMYINQTLDSVLQKNCLESTERMLLIRDAVRASGESWDENDPKLAIKVQQVLEQYVQKVIDGDIETKYERPKFLTNQYETELSPDDCDPDNERDMKSKRSVKQEINTDDSDNDNSPGPSSSCRKKGPPSPKRRKTTRVMRESSSDSDDDKSQASDKDTYHGMERETEEEDPPSAFETAQEFDTEDEEEEKKPKRGTASSSKRRKRRRMWVSKKDRRLHEFRKKMNQEVKELRSAYPRLLHESGVSKSETRPKMRRSDELKILGYNNEREELECEWFNEAEQLISRLTISATEPQKDQRLDMENDIKFARLRHYVRLLGIRKAKRNTVLEHDKINEFMKFYQEACYAAAKRPVSQQEIMDSRTEKEKLLAMTQQFLTRDEYRSLRASIERIDNVVERIEVLQDLQKNGETTLKNAPVERKSKKKMRKIDCEQKKKIATEWSKFKKWHTEGWE”, the “soluble on expression in E. coli” value was “not soluble”. With “MSLTLLALGINHKTAPVSLRERVSFSPDKLDQALDSLLAQPMVQGGVVLSTCNRTELYLSVEERDDLQEALIRWLCDYHNLNEDDLRNSLYWHQDNDAVSHLMRVASGLDSLVLGEPQILGQVKKAFADSQKGHMKASELERMFQKSFSVAKRVRTETDIGASAVSVAFAACTLARQIFESLSTVTVLLVGAGETIELVARHLREHKVQKMIIANRTRERAQILADEVGAEVIALSDIDERLREADIIISSTASPLPIIGKGMVERALKSRRNQPMLLVDIAVPRDVEPEVGKLANAYLYSVDDLQSIISHNLAQREGHHHHHH” the “soluble on expression in E. coli” value was “not soluble”. In the case of “KEDYDRRSGKVSEPAPQATEEEDKVEVEPEDNGISSVADMSDGKESIAPKGHAVKPDEGAHSAKKTYKIQILSSTTKLKNGDKRLKGYKVVIEQRGGRFFYLTGAVSSEDEARHLRKKVRKSFPDAYIVVYEAGKRVREIY”, the “soluble on expression in E. coli” value was “not soluble”. In the case of “MGRDSPRDRRHRDRSPERRRRSRSRSRDRQTRRDTRRDDSPKIKREVKEEQFSDNDSPRRRRDDRGGRRDDRRDNRRDDRRDHRDDRGDRDRRDNFRRPDPVREDGKQYGLEKKEENWGKPEEPAKEKEKVNLGTSGALTEDTNTFRGVVIKYNEPPEAKKPNARWRLYPFKGEESLQVLYIHRQSAYLIGRDHKIADIPVDHPSCSKQHAVLQFRSMPFTRDDGTKARRIMPYIIDLGSGNGTFLNEKKIEPQRYIELQEKDMLKFGFSTREYVVMKEREITEEELAEGEDVKKEESD”, the “soluble on expression in E. coli” value was “not soluble”. With “GPGSMPHGISYYEFPWPDMTAPQQDIVLRSVQVMDYHIKQKGKVLVHCHAGLGRTGLMIACYYVYSQHIPSDEAIALVRKMRPGAIQTTRQAQFIADFEKHLWRLSQAFRVEISDALIDLNLFIQRQRLVLHGEQADLYKSVPLFLHTILCRLLNLTKDNPEAARLALQSLGPSAAPTDTTLSACRIAINRRRFRVQSVRDVSILSFLVCDWFRSTSSPALTEENCDQIVESMRASISKQEGLPLEIRRILSKPARHTLGMVISAFFIISRQVGCVSLTNFAFRCVVDSFNHAFNPIKVRHSPLERELIHKFFLEWGESVGDLYFNYDTVPAAHRTIKRIALASSIVLEATKNTDPPRRSSPSVRTLSVPSSTPEMSSNPAKQTGAPDSALVFSTQSRASHLFDMPLAVETDSESKTRLWRQHLIEYRRDTDGRRGRGERQRPPASSADAKVKR” the “soluble on expression in E. coli” value was “not soluble”. In the case of “MPAVAFPVSSPRLLARAVQIAVLAMGALCVGCQSVDYSPPRQDRPPRLVSGLVYWGGDDKEGSRAADKISDLPVYNGEDVWQRVAQRCRLVDGQGMNERIARQRDWLLSNRGFITGASVRASPYLHFIVERLDERNMPLELALLPMIESSYNPMANSPAAAAGLWQFIPSTGRSFNLHQSATYDARRDVVASSKAAMDYLTRLHDQFNNDWLLALAAYNAGEGTVGRAIEANRRRGLPVDYWNLNLPKETQDYVPRLLALSMVVRNPNAYGVKLTPVANTPYFDVVELNHAVDLTQLAATAGVDEGQLLRLNSAFLRKKTFDGPGRLLIPKTQNRVLTTSIARITGESPVTASIPLVTPSAIVKRAAERLPAPAPVAERPVRVAERPPLPKPVQSAQLAENLPSPKTAQPLPVAQQPTAPEALQPAPAAESAPAVEIAQSAPVVEPDPLTNRIQLPRIRDDRSSPRKRDDDEYRSGPRELPTGPRVVVFASDPRQLEHHHHHH”, the “soluble on expression in E. coli” value was “not soluble”. In the case of “MGSDKIHHHHHHMENIVELINVTKTFKDFSINKMDLQVKKGFVTGFIGANGAGKSTTIKMMMNLLKPDDGEVKLFGMDYTTHEKAIKERIGFVYDGNVFFEGLNLKDIKHIVGPAYKRWDDTLFYQYVDKFELPLNKAIKTFSKGMQMKASLAIALSHHAELIIMDEPTAGLDPIFRRELLDILQELMIDNDRTIFFSTHITTDLDRIADYIAFMQGGNLVFNQSIHDIDENYALVKGGLDLLDKDTEKAFVHVRRASTGFEALTNNLSAVKNIFGDTVIIERATLEDIMYYMKGGVHYV”, the “soluble on expression in E. coli” value was “not soluble”. In the case of “MIGSTSDGLVPGNTDMPATPTTALTALRTPHPPTGGESMHPRTRTAPALLFAVCLTALAAYPAAADDPVPTTERVSVTLDGAQIDDPSYRPQLTSKGGVVYTSDGPVWSTDHNGVSDAYRNSERVSYNMGAARSYDPSACHTARMIAFVSDRTPAGGTTPSVYVRNTPVGKLSYASHGYQGVPFTWAGQPAMSADCQWMAFSATLPATPDHVEQPRVYRYRIYDGTIEQVSPDSADGSRAAVRPSISADGRYVAYQSSIPHPGGPANDSDIYVRDLETGTLEKASVGRHGRPADRASTGPSLSADGRHVAFDSYASNLAPGDTNGTVNVFVRDLDAGTTRLVKGAGRHAYTAEAALSGDGLHLAYVSAGIRGSRGVPAVYLRDLATGRTRLISVDTRGHRNDRAAGNPSVNPDGTAVAFDSASPDLVPGDTNGTVDVFLRRLGSPEALEHHHHHH”, the “soluble on expression in E. coli” value was “soluble”. With “MIESVLLLVSGLPGSGKSTLARGMAEALAWPCLDKDDFLEALFDARGIGDAAWRRALSREADSRFLAALQAAPRAVACSWWRHPRGEGGSGTPIGGLARPGRLVLELHCRCPAELAAARFARRVRHPGHLDAQRDPGALSLQLRRAERLGPLGLGQCLILDASVQTDLSGALAWTRDALAAGALADPPRHPLEHHHHHH” the “soluble on expression in E. coli” value was “not soluble”. For “MFFRVKTTPTKAKPYVKPQNANNLQNNFNPRKIFTEYISKEETDAGIEDGSMFKGVLRINPKNYQECFLDHPKGTNHPDVLVLGQDRNRAMQGDVVAVKIKPKEDWLVNYVEYVKWWAEHKKGDRNSGKTDNNSPNKTEKRCLRNEIQDNGVTSDEVPDSCLITIGAIVHILEKKHFRVAAGKLQLMPNSANPNVLFVATDSRVPRILIPKSDVDKEFFSRPKDFERFLYTAKITDWRAESVYADGRLVKLLGMSGEIDTETERIVYEHQIDHREFSDECLESLPITTAENWKVPDAEFEYRRDFRSDIVFTIDPKTARDLDDALHAKHIDDCDGKGTPGLEIGVHIADVTFFLKEGTELDKWASERGNSTYLSQTVIPMLPRILCEQLCSLNPGVDRLSFSTVFKMSYEAELYDVWFGRSVIRSRVKLAYEHAQDFIENPEKDFTCDELPDISDGNTPFEIKEKTLMLHRIAQVLRQKREDSGALRIELPRLKFALDEDKKPQGVSIYEIKDSNKLVEEFMLLANMEVAKKIAENFPEHALLRNHPPPKEKMIKDVAEQCARIGFPLDGRTSGLLSTSLRKYQGKSRLDMCIRQVISSLTIKPMQQAKYFCTFEMPLSFYHHFALNVDHYTHFTSPIRRYPDVIVHRQLAAALGYNERSERVPEEIQEICTRCNDTKLASKEASDESAMLYFGVFIHQTGPMKCQAVVLGVMDLSFDVLIVEYGVVKRVYVDKMKRDFNKSTEKLTIYWPADPNAESGNREEFSSSIQMCNVVYVILVPYKSIEVSATIVRPSLEQRNILKSTLKDMKETGSTILQ”, the “soluble on expression in E. coli” value was “not soluble”. For “GQSITDYNYKKPLHNDYQILDKSKIFGSNSGSFVMYSMKKDKYYIYNEKESRKRYSPNSTYKIYLAMFGLDRHIINDENSRMSWNHKHYPFDAWNKEQDLNTAMQNSVNWYFERISDQIPKNYTATQLKQLNYGNKNLGSYKSYWMEDSLKISNLEQVIVFKNMMEQNNHFSKKAKNQLSSSLLIKKNEKYELYGKTGTGIVNGKYNNGWFVGYVITNHDKYYFATHLSDGKPSGKNAELISEKILKEMGVLNGQ”, the “soluble on expression in E. coli” value was “soluble”.

Reference: the DeepSol protein solubility set
